Where no end group is shown, it is not given here.

One data set has as its target T1, MAN1-C (UniProt Q9Y2U8 650-911).
T1 sequence: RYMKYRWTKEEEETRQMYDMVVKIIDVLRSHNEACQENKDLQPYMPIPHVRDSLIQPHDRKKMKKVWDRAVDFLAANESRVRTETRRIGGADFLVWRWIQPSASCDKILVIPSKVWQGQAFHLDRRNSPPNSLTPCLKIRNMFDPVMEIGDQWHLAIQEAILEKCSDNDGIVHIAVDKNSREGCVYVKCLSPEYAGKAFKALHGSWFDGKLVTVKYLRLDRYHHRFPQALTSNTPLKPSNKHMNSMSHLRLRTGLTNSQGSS
In words: NMR (1H-15N HSQC); 150 mM NaCl?; NMR: 25 mM potassium phosphate pH 6.5, 2 mM 2-mercaptoethanol, 95% H2O/5% D2O, 200 mM NaCl (Crx samples) or 150 mM NaCl (MAN1-C samples); salt for MA and temperature not given. The pull-down used undefined sonicated salmon sperm DNA (not listed). The note with it: protein: recombinant; tags: His6-thioredoxin removed by thrombin; blunt.

Data set [1] has as its target T2, Barrier-to-autointegration factor (BAF), human, unlabeled (human, UniProt O75531 1-89).
T2 construct: Barrier-to-autointegration factor (BAF/BANF1), human; Used unlabeled in the NMR experiments; also called BANF1; BAF2 (the dimer); source: cloned and purified as described [12]
T2 sequence (looked up): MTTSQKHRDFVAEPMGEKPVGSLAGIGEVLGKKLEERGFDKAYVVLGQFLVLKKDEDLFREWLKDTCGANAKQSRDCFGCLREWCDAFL
Put plainly: NMR titration; 1H-15N HSQC of 50 µM 15N-labeled LEM domain without and with 200 µM unlabeled BAF2; 25 mM potassium phosphate pH 6.5, 200 mM NaCl, 2 mM 2-mercaptoethanol, 27°C. The settings on record: both partners purified.

B1: 16 mer DNA duplex (dsDNA)
DNA 1: CCAGCACAAACACCTG
DNA 2: CAGGTGTTTGTGCTGG
B1: the binding result with MAN1-C is recorded as “binds”.

B2: LEM domain of Emerin (residues 1-47), 15N-labeled (domain or fragment, UniProt P50402 1-47, looked up)
chain: MDNYADLSDTELTTLLRRYNIPHGPVVGSTRRLYEKKIFEYETQRRR
modifications: also: 15N-labeled
notes: Emerin, LEM domain, residues 1-47; Uniformly 15N-labeled for NMR; also called Emerin LEM domain; source: cloned and purified as described [12]
With B2, the binding result in data set [1] was “binds”.

B3: LEM domain of MAN1 (residues 1-52), 15N-labeled (domain or fragment, UniProt Q9Y2U8 1-52, looked up)
chain: MAAAAASAPQQLSDEELFSQLRRYGLSPGPVTESTRPVYLKKLKKLREEEQQ
modifications: also: 15N-labeled
notes: MAN1 (inner nuclear membrane protein), LEM domain, residues 1-52; Uniformly 15N-labeled for NMR; also called MAN1 LEM domain; MAN-1 LEM domain; source: cloned and purified as described [12]
Turning to B3, in data set [1], the binding result is on record as “binds”.

Values taken from article PMC3178605, “No Interaction of Barrier-to-Autointegration Factor (BAF) with HIV-1 MA, Cone-Rod Homeobox (Crx) or MAN1-C in Absence of DNA” (PLoS ONE, 2011).
